Measured values reported in publication PMC5083789.

Target: Pure recombinant PlmA (Synechococcus elongatus PCC7942)
Assay: SEC; 0.1 mg pure PlmA in 0.1 ml on Superdex 200 10/300 GL, 0.3 ml/min, 50 mM Hepes pH 7.5, 0.5 M NaCl, 1 mM 2-mercaptoethanol; calibrated with protein standards

stoichiometry N: 2
Substance: Pure recombinant PlmA (natural protein)
